Results published in patent publication US20200339959A1 (Memorial Sloan Kettering, published 2020).

B1: vaccinia virus C7 protein (other)
chain: MGIQHEFDIIINGDIALRNLQLHKGDNYGCKLKIISNDYKKLKFRFIIRPDWSEIDEVKGLTVFANNYAVKVNKVDDTFYYVIYEAVIHLYNKKTEILIYSDDENELFKHYYPYISLNMISKKYKVKEENYSSPYIEHPLIPYRDYESMD
notes: also called vaccinia C7; C7L gene product
B2: HA-tagged vaccinia C7 (other)
chain: B1 chain
notes: also called C7-HA; HA-tagged C7

Tests used:
Flag-tagged human IRF3 = biological target: T1, Flag-tagged human IRF3 (human, UniProt Q14653 1-427); assay: co-immunoprecipitation from HEK293T lysates: IP anti-C7, blot anti-Flag
T1 construct: also called transcription factor IRF3; not shown: Flag tag
T1 sequence: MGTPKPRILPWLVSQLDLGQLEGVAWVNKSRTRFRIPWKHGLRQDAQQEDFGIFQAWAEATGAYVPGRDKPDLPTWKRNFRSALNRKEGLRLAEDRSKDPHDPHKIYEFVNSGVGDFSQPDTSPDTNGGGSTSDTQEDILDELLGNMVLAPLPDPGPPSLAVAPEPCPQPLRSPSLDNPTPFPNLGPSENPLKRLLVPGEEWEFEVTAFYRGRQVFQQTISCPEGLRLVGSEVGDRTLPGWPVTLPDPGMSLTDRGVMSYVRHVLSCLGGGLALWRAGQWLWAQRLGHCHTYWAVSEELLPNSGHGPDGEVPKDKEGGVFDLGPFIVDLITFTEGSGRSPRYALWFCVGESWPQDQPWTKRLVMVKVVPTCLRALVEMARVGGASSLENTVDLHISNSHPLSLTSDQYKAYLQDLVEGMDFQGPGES

Flag-tagged human STAT2 = biological target: T2, Flag-tagged human STAT2 (human, UniProt P52630 1-851); assay: co-immunoprecipitation from HEK293T lysates: IP anti-HA, blot anti-Flag
T2 construct: also called flag-STAT2; not shown: Flag tag

Flag-tagged human STAT1 = biological target: T3, Flag-tagged human STAT1 (human, UniProt P42224 1-750); assay: as above
T3 construct: also called flag-STAT1; not shown: Flag tag
T3 sequence: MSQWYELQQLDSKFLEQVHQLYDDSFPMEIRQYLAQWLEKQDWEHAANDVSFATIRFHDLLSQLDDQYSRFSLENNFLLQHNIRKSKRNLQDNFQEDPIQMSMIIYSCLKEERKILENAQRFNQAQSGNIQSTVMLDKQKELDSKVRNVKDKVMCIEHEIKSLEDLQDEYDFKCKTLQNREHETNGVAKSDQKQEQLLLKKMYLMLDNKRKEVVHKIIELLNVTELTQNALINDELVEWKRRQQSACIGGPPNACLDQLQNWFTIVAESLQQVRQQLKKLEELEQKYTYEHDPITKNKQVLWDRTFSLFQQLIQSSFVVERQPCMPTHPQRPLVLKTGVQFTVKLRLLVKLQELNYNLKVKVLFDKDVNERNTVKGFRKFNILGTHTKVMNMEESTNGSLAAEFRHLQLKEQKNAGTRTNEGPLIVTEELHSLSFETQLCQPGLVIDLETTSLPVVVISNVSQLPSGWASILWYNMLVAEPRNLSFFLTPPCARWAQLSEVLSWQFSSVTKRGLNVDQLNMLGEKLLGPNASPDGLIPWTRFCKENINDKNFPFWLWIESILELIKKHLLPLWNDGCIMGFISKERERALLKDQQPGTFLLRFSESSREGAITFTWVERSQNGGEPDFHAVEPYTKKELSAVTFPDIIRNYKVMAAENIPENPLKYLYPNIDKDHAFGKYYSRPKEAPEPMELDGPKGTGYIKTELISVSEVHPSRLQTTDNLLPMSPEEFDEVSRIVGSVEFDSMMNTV

Row | Binder | binding result (Flag-tagged human IRF3) | binding result (Flag-tagged human STAT2) | binding result (Flag-tagged human STAT1)
1 | B1 | binds | – | –
2 | B2 | – | binds | no binding
